# Columns and labels:
# HeLa Kyoto [1] = experiment: solubility change mitosis vs G1/S (difference of NP-40 vs SDS log2 ratios) (log2 ratio difference); higher = more soluble in mitosis
# HeLa Kyoto [2] = experiment: melting temperature (median over replicates), in situ; higher = more thermally stable
# HeLa Kyoto [3] = experiment: thermal stability score vs G1/S (z-score of summed log2 fold changes over temperatures); higher = more thermally stable than in G1/S
# HeLa Kyoto [4] = experiment: solubility in G1/S (NP-40 vs SDS abundance) (log2 ratio); higher = more soluble; conditions: cell cycle stage: G1/S
# [5] = cell cycle stage: early G1 (4.5 h after nocodazole release)
# 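For melting temperature (median over replicates), in situ in this document: HeLa Kyoto cells synchronized by double thymidine or nocodazole block, proteins quantified by TMT10plex mass spectrometry, three independent biological replicates.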
# 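For solubility change mitosis vs G1/S (difference of NP-40 vs SDS log2 ratios) in this document: synchronized HeLa Kyoto cells (double thymidine block for G1/S, nocodazole release for mitosis), protein amounts in NP-40 versus SDS lysates quantified by mass spectrometry, three biological replicates.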
# 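For solubility in G1/S (NP-40 vs SDS abundance) in this document: HeLa Kyoto cells arrested at G1/S by double thymidine block, proteins quantified by TMT10plex mass spectrometry in mild NP-40 versus SDS extracts, three biological replicates.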
# 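For thermal stability score vs G1/S (z-score of summed log2 fold changes over temperatures) in this document: synchronized HeLa Kyoto cells, proteins quantified by TMT10plex mass spectrometry, three biological replicates, mitosis taken 0.5 h after nocodazole release, G1/S directly after double thymidine block.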
Sequence,solubility change mitosis (log2) (HeLa Kyoto [1]),melting temperature (HeLa Kyoto [2]; cell cycle stage: G1/S),melting temperature (HeLa Kyoto [2]; cell cycle stage: mitosis),thermal stability score (HeLa Kyoto [3]; [5]),thermal stability score (HeLa Kyoto [3]; cell cycle stage: mitosis),solubility in G1/S (log2) (HeLa Kyoto [4])
MAMDSSLQARLFPGLAIKIQRSNGLIHSANVRTVNLEKSCVSVEWAEGGATKGKEIDFDDVAAINPELLQLLPLHPKDNLPLQENVTIQKQKRRSVNSKIPAPKESLRSRSTRMSTVSELRITAQENDMEVELPAAANSRKQFSVPPAPTRPSCPAVAEIPLRMVSEEMEEQVHSIRGSSSANPVNSVRRKSCLVKEVEKMKNKREEKKAQNSEMRMKRAQEYDSSFPNWEFARMIKEFRATLECHPLTMTDPIEEHRICVCVRKRPLNKQELAKKEIDVISIPSKCLLLVHEPKLKVDLTKYLENQAFCFDFAFDETASNEVVYRFTARPLVQTIFEGGKATCFAYGQTGSGKTHTMGGDLSGKAQNASKGIYAMASRDVFLLKNQPCYRKLGLEVYVTFFEIYNGKLFDLLNKKAKLRVLEDGKQQVQVVGLQEHLVNSADDVIKMIDMGSACRTSGQTFANSNSSRSHACFQIILRAKGRMHGKFSLVDLAGNERGADTSSADRQTRMEGAEINKSLLALKECIRALGQNKAHTPFRESKLTQVLRDSFIGENSRTCMIATISPGISSCEYTLNTLRYADRVKELSPHSGPSGEQLIQMETEEMEACSNGALIPGNLSKEEEELSSQMSSFNEAMTQIRELEEKAMEELKEIIQQGPDWLELSEMTEQPDYDLETFVNKAESALAQQAKHFSALRDVIKALRLAMQLEEQASRQISSKKRPQ [KIF2C],-0.0369,48.6 °C,49.5 °C,2.01,3.27,-0.0225
MVGSALRRGAHAYVYLVSKASHISRGHQHQAWGSRPPAAECATQRAPGSVVELLGKSYPQDDHSNLTRKVLTRVGRNLHNQQHHPLWLIKERVKEHFYKQYVGRFGTPLFSVYDNLSPVVTTWQNFDSLLIPADHPSRKKGDNYYLNRTHMLRAHTSAHQWDLLHAGLDAFLVVGDVYRRDQIDSQHYPIFHQLEAVRLFSKHELFAGIKDGESLQLFEQSSRSAHKQETHTMEAVKLVEFDLKQTLTRLMAHLFGDELEIRWVDCYFPFTHPSFEMEINFHGEWLEVLGCGVMEQQLVNSAGAQDRIGWAFGLGLERLAMILYDIPDIRLFWCEDERFLKQFCVSNINQKVKFQPLSKYPAVINDISFWLPSENYAENDFYDLVRTIGGDLVEKVDLIDKFVHPKTHKTSHCYRITYRHMERTLSQREVRHIHQALQEAAVQLLGVEGRF [FARS2],-0.0528,49.7 °C,49.5 °C,0.911,1.74,-0.187
MESEDLSGRELTIDSIMNKVRDIKNKFKNEDLTDELSLNKISADTTDNSGTVNQIMMMANNPEDWLSLLLKLEKNSVPLSDALLNKLIGRYSQAIEALPPDKYGQNESFARIQVRFAELKAIQEPDDARDYFQMARANCKKFAFVHISFAQFELSQGNVKKSKQLLQKAVERGAVPLEMLEIALRNLNLQKKQLLSEEEKKNLSASTVLTAQESFSGSLGHLQNRNNSCDSRGQTTKARFLYGENMPPQDAEIGYRNSLRQTNKTKQSCPFGRVPVNLLNSPDCDVKTDDSVVPCFMKRQTSRSECRDLVVPGSKPSGNDSCELRNLKSVQNSHFKEPLVSDEKSSELIITDSITLKNKTESSLLAKLEETKEYQEPEVPESNQKQWQSKRKSECINQNPAASSNHWQIPELARKVNTEQKHTTFEQPVFSVSKQSPPISTSKWFDPKSICKTPSSNTLDDYMSCFRTPVVKNDFPPACQLSTPYGQPACFQQQQHQILATPLQNLQVLASSSANECISVKGRIYSILKQIGSGGSSKVFQVLNEKKQIYAIKYVNLEEADNQTLDSYRNEIAYLNKLQQHSDKIIRLYDYEITDQYIYMVMECGNIDLNSWLKKKKSIDPWERKSYWKNMLEAVHTIHQHGIVHSDLKPANFLIVDGMLKLIDFGIANQMQPDTTSVVKDSQVGTVNYMPPEAIKDMSSSRENGKSKSKISPKSDVWSLGCILYYMTYGKTPFQQIINQISKLHAIIDPNHEIEFPDIPEKDLQDVLKCCLKRDPKQRISIPELLAHPYVQIQTHPVNQMAKGTTEEMKYVLGQLVGLNSPNSILKAAKTLYEHYSGGESHNSSSSKTFEKKRGKK,0.0511,46.8 °C,48.1 °C,0.873,3.46,0.176
MEEECRVLSIQSHVIRGYVGNRAATFPLQVLGFEIDAVNSVQFSNHTGYAHWKGQVLNSDELQELYEGLRLNNMNKYDYVLTGYTRDKSFLAMVVDIVQELKQQNPRLVYVCDPVLGDKWDGEGSMYVPEDLLPVYKEKVVPLADIITPNQFEAELLSGRKIHSQEEALRVMDMLHSMGPDTVVITSSDLPSPQGSNYLIVLGSQRRRNPAGSVVMERIRMDIRKVDAVFVGTGDLFAAMLLAWTHKHPNNLKVACEKTVSTLHHVLQRTIQCAKAQAGEGVRPSPMQLELRMVQSKRDIEDPEIVVQATVL [PDXK],-0.0576,55.5 °C,56.3 °C,0.134,0.0482,0.315
MVTVGNYCEAEGPVGPAWMQDGLSPCFFFTLVPSTRMALGTLALVLALPCRRRERPAGADSLSWGAGPRISPYVLQLLLATLQAALPLAGLAGRVGTARGAPLPSYLLLASVLESLAGACGLWLLVVERSQARQRLAMGIWIKFRHSPGLLLLWTVAFAAENLALVSWNSPQWWWARADLGQQVQFSLWVLRYVVSGGLFVLGLWAPGLRPQSYTLQVHEEDQDVERSQVRSAAQQSTWRDFGRKLRLLSGYLWPRGSPALQLVVLICLGLMGLERALNVLVPIFYRNIVNLLTEKAPWNSLAWTVTSYVFLKFLQGGGTGSTGFVSNLRTFLWIRVQQFTSRRVELLIFSHLHELSLRWHLGRRTGEVLRIADRGTSSVTGLLSYLVFNVIPTLADIIIGIIYFSMFFNAWFGLIVFLCMSLYLTLTIVVTEWRTKFRRAMNTQENATRARAVDSLLNFETVKYYNAESYEVERYREAIIKYQGLEWKSSASLVLLNQTQNLVIGLGLLAGSLLCAYFVTEQKLQVGDYVLFGTYIIQLYMPLNWFGTYYRMIQTNFIDMENMFDLLKEETEVKDLPGAGPLRFQKGRIEFENVHFSYADGRETLQDVSFTVMPGQTLALVGPSGAGKSTILRLLFRFYDISSGCIRIDGQDISQVTQASLRSHIGVVPQDTVLFNDTIADNIRYGRVTAGNDEVEAAAQAAGIHDAIMAFPEGYRTQVGERGLKLSGGEKQRVAIARTILKAPGIILLDEATSALDTSNERAIQASLAKVCANRTTIVVAHRLSTVVNADQILVIKDGCIVERGRHEALLSRGGVYADMWQLQQGQEETSEDTKPQTMER [ABCB6],-0.128,54 °C,53.4 °C,-1.04,-3.83,-0.0102
MKPGFSPRGGGFGGRGGFGDRGGRGGRGGFGGGRGRGGGFRGRGRGGGGGGGGGGGGGRGGGGFHSGGNRGRGRGGKRGNQSGKNVMVEPHRHEGVFICRGKEDALVTKNLVPGESVYGEKRVSISEGDDKIEYRAWNPFRSKLAAAILGGVDQIHIKPGAKVLYLGAASGTTVSHVSDIVGPDGLVYAVEFSHRSGRDLINLAKKRTNIIPVIEDARHPHKYRMLIAMVDVIFADVAQPDQTRIVALNAHTFLRNGGHFVISIKANCIDSTASAEAVFASEVKKMQQENMKPQEQLTLEPYERDHAVVVGVYRPPPKVKN [FBL],1.49,52.9 °C,51.5 °C,-1.06,-3.39,-1.97
MAGRSMQAARCPTDELSLTNCAVVNEKDFQSGQHVIVRTSPNHRYTFTLKTHPSVVPGSIAFSLPQRKWAGLSIGQEIEVSLYTFDKAKQCIGTMTIEIDFLQKKSIDSNPYDTDKMAAEFIQQFNNQAFSVGQQLVFSFNEKLFGLLVKDIEAMDPSILKGEPATGKRQKIEVGLVVGNSQVAFEKAENSSLNLIGKAKTKENRQSIINPDWNFEKMGIGGLDKEFSDIFRRAFASRVFPPEIVEQMGCKHVKGILLYGPPGCGKTLLARQIGKMLNAREPKVVNGPEILNKYVGESEANIRKLFADAEEEQRRLGANSGLHIIIFDEIDAICKQRGSMAGSTGVHDTVVNQLLSKIDGVEQLNNILVIGMTNRPDLIDEALLRPGRLEVKMEIGLPDEKGRLQILHIHTARMRGHQLLSADVDIKELAVETKNFSGAELEGLVRAAQSTAMNRHIKASTKVEVDMEKAESLQVTRGDFLASLENDIKPAFGTNQEDYASYIMNGIIKWGDPVTRVLDDGELLVQQTKNSDRTPLVSVLLEGPPHSGKTALAAKIAEESNFPFIKICSPDKMIGFSETAKCQAMKKIFDDAYKSQLSCVVVDDIERLLDYVPIGPRFSNLVLQALLVLLKKAPPQGRKLLIIGTTSRKDVLQEMEMLNAFSTTIHVPNIATGEQLLEALELLGNFKDKERTTIAQQVKGKKVWIGIKKLLMLIEMSLQMDPEYRVRKFLALLREEGASPLDFD [NSF],-0.153,49.8 °C,49.6 °C,0.564,0.772,0.236
MEPAPSEVRLAVREAIHALSSSEDGGHIFCTLESLKRYLGEMEPPALPREKEEFASAHFSPVLRCLASRLSPAWLELLPHGRLEELWASFFLEGPADQAFLVLMETIEGAAGPSFRLMKMARLLARFLREGRLAVLMEAQCRQQTQPGFILLRETLLGKVVALPDHLGNRLQQENLAEFFPQNYFRLLGEEVVRVLQAVVDSLQGGLDSSVSFVSQVLGKACVHGRQQEILGVLVPRLAALTQGSYLHQRVCWRLVEQVPDRAMEAVLTGLVEAALGPEVLSRLLGNLVVKNKKAQFVMTQKLLFLQSRLTTPMLQSLLGHLAMDSQRRPLLLQVLKELLETWGSSSAIRHTPLPQQRHVSKAVLICLAQLGEPELRDSRDELLASMMAGVKCRLDSSLPPVRRLGMIVAEVVSARIHPEGPPLKFQYEEDELSLELLALASPQPAGDGASEAGTSLVPATAEPPAETPAEIVDGGVPQAQLAGSDSDLDSDDEFVPYDMSGDRELKSSKAPAYVRDCVEALTTSEDIERWEAALRALEGLVYRSPTATREVSVELAKVLLHLEEKTCVVGFAGLRQRALVAVTVTDPAPVADYLTSQFYALNYSLRQRMDILDVLTLAAQELSRPGCLGRTPQPGSPSPNTPCLPEAAVSQPGSAVASDWRVVVEERIRSKTQRLSKGGPRQGPAGSPSRFNSVAGHFFFPLLQRFDRPLVTFDLLGEDQLVLGRLAHTLGALMCLAVNTTVAVAMGKALLEFVWALRFHIDAYVRQGLLSAVSSVLLSLPAARLLEDLMDELLEARSWLADVAEKDPDEDCRTLALRALLLLQRLKNRLLPPASP [TELO2],-0.103,48.8 °C,49.1 °C,-0.195,0.325,-0.341
MAAAAVSESWPELELAERERRRELLLTGPGLEERVRAAGGQLPPRLFTLPLLHYLEVSGCGSLRAPGPGLAQGLPQLHSLVLRRNALGPGLSPELGPLPALRVLDLSGNALEALPPGQGLGPAEPPGLPQLQSLNLSGNRLRELPADLARCAPRLQSLNLTGNCLDSFPAELFRPGALPLLSELAAADNCLRELSPDIAHLASLKTLDLSNNQLSEIPAELADCPKLKEINFRGNKLRDKRLEKMVSGCQTRSILEYLRVGGRGGGKGKGRAEGSEKEESRRKRRERKQRREGGDGEEQDVGDAGRLLLRVLHVSENPVPLTVRVSPEVRDVRPYIVGAVVRGMDLQPGNALKRFLTSQTKLHEDLCEKRTAATLATHELRAVKGPLLYCARPPQDLKIVPLGRKEAKAKELVRQLQLEAEEQRKQKKRQSVSGLHRYLHLLDGNENYPCLVDADGDVISFPPITNSEKTKVKKTTSDLFLEVTSATSLQICKDVMDALILKMAEMKKYTLENKEEGSLSDTEADAVSGQLPDPTTNPSAGKDGPSLLVVEQVRVVDLEGSLKVVYPSKADLATAPPHVTVVR [LRRC47],0.0172,53 °C,52.2 °C,-0.334,-1.47,0.238
